IntAct's records for PubMed 35512704

B1: Mothers against decapentaplegic homolog 4 (Homo sapiens), Q13485 (parent)
chain: MDNMSITNTPTSNDACLSIVHSLMCHRQGGESETFAKRAIESLVKKLKEKKDELDSLITAITTNGAHPSKCVTIQRTLDGRLQVAGRKGFPHVIYARLWRWPDLHKNELKHVKYCQYAFDLKCDSVCVNPYHYERVVSPGIDLSGLTLQSNAPSSMMVKDEYVHDFEGQPSLSTEGHSIQTIQHPPSNRASTETYSTPALLAPSESNATSTANFPNIPVASTSQPASILGGSHSEGLLQIASGPQPGQQQNGFTGQPATYHHNSTTTWTGSRTAPYTPNLPHHQNGHLQHHPPMPPHPGHYWPVHNELAFQPPISNHPAPEYWCSIAYFEMDVQVGETFKVPSSCPIVTVDGYVDPSGGDRFCLGQLSNVHRTEAIERARLHIGKGVQLECKGEGDVWVRCLSDHAVFVQSYYLDREAGRAPGDAVHKIYPSAYIKVFDLRQCHRQMQQQAATAQAAAAAQAAAVAGNIPGPGSVGGIAPAISLSAAAGIGVDDLRRLCILRMSFVKGWGPDYPRQSIKETPCWIEIHLHRALQLLDEVLHTMPIADPQPLD
partner: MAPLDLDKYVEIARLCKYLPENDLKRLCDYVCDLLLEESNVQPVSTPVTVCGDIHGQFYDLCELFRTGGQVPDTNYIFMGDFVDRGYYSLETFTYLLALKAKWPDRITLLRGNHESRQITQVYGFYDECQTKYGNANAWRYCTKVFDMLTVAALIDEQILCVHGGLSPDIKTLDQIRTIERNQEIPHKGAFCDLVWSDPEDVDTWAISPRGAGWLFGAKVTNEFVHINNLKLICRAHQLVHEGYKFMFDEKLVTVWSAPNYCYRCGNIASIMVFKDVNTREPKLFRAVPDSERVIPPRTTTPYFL
B2: Mothers against decapentaplegic homolog 4 (Homo sapiens), Q13485 (parent)
chain: B1 chain
partner: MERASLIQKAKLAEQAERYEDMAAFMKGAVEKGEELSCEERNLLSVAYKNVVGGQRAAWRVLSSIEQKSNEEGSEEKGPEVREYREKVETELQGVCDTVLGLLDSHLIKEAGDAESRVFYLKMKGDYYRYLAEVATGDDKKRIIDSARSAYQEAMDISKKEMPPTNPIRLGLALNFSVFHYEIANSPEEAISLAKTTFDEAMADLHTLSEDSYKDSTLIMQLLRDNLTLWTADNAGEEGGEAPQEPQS
B3: Mothers against decapentaplegic homolog 4 (Homo sapiens), Q13485 (parent)
chain: B1 chain
partner: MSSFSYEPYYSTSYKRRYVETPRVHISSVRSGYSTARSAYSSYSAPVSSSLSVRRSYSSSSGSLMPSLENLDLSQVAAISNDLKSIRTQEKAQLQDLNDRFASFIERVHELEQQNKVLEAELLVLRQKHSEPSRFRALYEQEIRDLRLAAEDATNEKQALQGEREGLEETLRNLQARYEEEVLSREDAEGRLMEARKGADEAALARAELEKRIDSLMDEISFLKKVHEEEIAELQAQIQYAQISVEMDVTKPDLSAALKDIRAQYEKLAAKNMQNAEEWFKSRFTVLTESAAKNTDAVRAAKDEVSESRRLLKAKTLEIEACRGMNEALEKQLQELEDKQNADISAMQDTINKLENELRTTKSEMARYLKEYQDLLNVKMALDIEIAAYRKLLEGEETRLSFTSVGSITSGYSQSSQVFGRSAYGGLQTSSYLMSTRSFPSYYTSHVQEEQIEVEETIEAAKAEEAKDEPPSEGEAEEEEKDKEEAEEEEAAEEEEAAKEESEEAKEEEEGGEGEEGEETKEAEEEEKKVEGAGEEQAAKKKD
B4: Mothers against decapentaplegic homolog 4 (Homo sapiens), Q13485 (parent)
chain: B1 chain
partner: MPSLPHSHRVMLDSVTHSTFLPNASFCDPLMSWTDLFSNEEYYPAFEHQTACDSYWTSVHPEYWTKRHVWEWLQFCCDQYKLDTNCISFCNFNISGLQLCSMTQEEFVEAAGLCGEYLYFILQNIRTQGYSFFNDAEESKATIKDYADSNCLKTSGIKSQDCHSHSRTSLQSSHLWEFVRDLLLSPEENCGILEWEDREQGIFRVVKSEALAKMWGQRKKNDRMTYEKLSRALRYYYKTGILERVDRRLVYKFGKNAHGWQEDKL
B5: Mothers against decapentaplegic homolog 4 (Homo sapiens), Q13485 (parent)
chain: B1 chain
partner: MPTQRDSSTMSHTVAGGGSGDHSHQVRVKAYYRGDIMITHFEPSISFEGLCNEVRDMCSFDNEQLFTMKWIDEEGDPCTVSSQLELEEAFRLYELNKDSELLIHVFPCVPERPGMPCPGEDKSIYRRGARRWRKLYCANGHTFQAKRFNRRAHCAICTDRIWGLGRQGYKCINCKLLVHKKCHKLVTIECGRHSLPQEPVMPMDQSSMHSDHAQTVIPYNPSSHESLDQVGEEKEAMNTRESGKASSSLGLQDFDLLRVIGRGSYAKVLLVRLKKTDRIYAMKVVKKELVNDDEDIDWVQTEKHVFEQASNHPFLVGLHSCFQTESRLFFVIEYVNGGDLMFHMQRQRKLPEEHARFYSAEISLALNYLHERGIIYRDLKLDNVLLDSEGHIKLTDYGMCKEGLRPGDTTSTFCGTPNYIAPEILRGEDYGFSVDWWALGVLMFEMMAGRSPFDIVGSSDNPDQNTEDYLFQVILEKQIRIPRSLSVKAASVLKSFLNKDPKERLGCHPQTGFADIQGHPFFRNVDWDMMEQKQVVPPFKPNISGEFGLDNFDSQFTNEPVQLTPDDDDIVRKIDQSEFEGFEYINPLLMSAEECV
B6: Mothers against decapentaplegic homolog 4 (Homo sapiens), Q13485 (parent)
chain: B1 chain
partner: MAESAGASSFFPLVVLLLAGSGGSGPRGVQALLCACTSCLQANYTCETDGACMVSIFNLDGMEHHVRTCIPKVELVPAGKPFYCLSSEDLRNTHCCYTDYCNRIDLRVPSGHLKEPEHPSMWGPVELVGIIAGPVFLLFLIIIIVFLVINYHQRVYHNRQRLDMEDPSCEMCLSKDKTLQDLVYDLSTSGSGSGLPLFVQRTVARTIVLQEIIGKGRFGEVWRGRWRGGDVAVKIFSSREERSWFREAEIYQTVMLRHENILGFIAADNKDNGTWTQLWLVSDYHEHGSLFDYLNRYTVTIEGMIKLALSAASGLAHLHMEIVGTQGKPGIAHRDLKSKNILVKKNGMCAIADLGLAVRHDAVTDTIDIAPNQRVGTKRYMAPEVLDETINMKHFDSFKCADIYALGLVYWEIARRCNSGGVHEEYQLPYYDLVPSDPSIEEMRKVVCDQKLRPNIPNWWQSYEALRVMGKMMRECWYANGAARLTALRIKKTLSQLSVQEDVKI
B7: Mothers against decapentaplegic homolog 4 (Homo sapiens), Q13485 (parent)
chain: B1 chain
partner: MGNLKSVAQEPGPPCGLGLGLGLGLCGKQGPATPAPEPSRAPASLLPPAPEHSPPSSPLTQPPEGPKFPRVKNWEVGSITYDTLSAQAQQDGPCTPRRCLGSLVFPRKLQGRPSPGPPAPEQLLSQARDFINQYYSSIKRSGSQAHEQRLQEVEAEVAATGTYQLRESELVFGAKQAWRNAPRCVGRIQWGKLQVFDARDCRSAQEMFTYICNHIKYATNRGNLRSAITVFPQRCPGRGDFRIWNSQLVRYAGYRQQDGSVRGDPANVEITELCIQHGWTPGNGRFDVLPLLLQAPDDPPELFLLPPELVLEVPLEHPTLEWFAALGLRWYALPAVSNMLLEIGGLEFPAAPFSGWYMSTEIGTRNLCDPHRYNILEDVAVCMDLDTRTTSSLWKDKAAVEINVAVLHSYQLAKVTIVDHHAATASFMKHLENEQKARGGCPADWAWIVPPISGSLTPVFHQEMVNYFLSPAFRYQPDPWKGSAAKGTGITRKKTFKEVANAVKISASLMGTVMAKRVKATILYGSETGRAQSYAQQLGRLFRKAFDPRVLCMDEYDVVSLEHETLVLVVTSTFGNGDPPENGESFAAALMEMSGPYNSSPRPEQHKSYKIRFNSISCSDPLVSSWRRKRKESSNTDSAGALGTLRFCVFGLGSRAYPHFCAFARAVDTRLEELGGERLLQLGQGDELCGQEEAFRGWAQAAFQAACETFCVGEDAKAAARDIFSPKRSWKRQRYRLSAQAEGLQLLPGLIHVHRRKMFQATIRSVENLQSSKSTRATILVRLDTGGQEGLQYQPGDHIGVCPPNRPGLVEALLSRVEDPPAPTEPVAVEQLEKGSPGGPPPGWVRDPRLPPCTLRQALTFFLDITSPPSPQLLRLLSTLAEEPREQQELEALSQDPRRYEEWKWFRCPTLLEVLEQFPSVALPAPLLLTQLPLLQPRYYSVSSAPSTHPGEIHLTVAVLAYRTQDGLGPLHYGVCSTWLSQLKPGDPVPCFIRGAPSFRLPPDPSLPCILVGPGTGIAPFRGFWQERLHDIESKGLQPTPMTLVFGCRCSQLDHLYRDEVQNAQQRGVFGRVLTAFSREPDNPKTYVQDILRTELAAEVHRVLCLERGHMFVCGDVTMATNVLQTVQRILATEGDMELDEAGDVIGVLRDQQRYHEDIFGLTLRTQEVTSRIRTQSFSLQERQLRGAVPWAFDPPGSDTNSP
B8: Mothers against decapentaplegic homolog 4 (Homo sapiens), Q13485 (parent)
chain: B1 chain
partner: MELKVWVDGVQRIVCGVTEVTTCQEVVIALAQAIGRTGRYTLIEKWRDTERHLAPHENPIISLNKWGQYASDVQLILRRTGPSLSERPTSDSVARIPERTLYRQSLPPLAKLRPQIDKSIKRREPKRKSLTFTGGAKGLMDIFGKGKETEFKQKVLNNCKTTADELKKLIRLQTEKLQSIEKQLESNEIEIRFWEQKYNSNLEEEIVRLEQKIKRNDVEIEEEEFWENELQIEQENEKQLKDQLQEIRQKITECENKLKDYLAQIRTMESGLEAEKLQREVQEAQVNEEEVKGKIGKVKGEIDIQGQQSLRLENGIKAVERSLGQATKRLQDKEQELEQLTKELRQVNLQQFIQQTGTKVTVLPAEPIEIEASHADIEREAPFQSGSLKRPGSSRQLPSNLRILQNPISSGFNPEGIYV

Variants of: B1
Conditions: with ppp6_human PPP6C
G386D was tested, and the “effect of a mutation on the interaction” value was “with no effect”.

Variants of: B1
Conditions: with ppp6_human PPP6C
Remark: another data set of the same source
In the case of G386D, the “effect of a mutation on the interaction” value is reported as “increasing interaction strength”.

Variants of: B1
Conditions: with ppp6_human PPP6C
Remark: another data set of the same source
R361C was tested, and the “effect of a mutation on the interaction” value was “with no effect”.

Variants of: B2
Conditions: with 1433s_human SFN
D351H was tested, and the “effect of a mutation on the interaction” value was “with no effect”.

Variants of: B2
Conditions: with 1433s_human SFN
Remark: another data set of the same source
In the case of R361H, the “effect of a mutation on the interaction” value is reported as “with no effect”.

Variants of: B2
Conditions: with 1433s_human SFN
Remark: another data set of the same source
In the case of G386D, the “effect of a mutation on the interaction” value is reported as “with no effect”.

Variants of: B3
Conditions: with nfl_human NEFL
With G386D the “effect of a mutation on the interaction” value was “with no effect”.

Variants of: B4
Conditions: with elf5_human ELF5, Q9UKW6
G386D was tested, and the “effect of a mutation on the interaction” value was “with no effect”.

Variants of: B4
Conditions: with elf5_human ELF5, Q9UKW6
Remark: another data set of the same source
With R361C the “effect of a mutation on the interaction” value was “with no effect”.

Variants of: B4
Conditions: with elf5_human ELF5, Q9UKW6
Remark: another data set of the same source
R361H was tested, and the “effect of a mutation on the interaction” value was “with no effect”.

Variants of: B5
Conditions: with kpci_human PRKCI
For R361H, the “effect of a mutation on the interaction” value was “with no effect”.

Variants of: B5
Conditions: with kpci_human PRKCI
Remark: another data set of the same source
D351H was tested, and the “effect of a mutation on the interaction” value was “with no effect”.

Variants of: B6
Conditions: with acv1b_human ACVR1B
With G386D the “effect of a mutation on the interaction” value was “with no effect”.

Variants of: B6
Conditions: with acv1b_human ACVR1B
Remark: another data set of the same source
In the case of G386D, the “effect of a mutation on the interaction” value is reported as “increasing interaction strength”.

Variants of: B6
Conditions: with acv1b_human ACVR1B
Remark: another data set of the same source
For R361C, the “effect of a mutation on the interaction” value was “with no effect”.

Variants of: B6
Conditions: with acv1b_human ACVR1B
Remark: another data set of the same source
For R361H, the “effect of a mutation on the interaction” value was “with no effect”.

Variants of: B7
Conditions: with nos3_human NOS3, P29474
G386D was tested, and the “effect of a mutation on the interaction” value was “with no effect”.

Variants of: B7
Conditions: with nos3_human NOS3, P29474
Remark: another data set of the same source
For G386D, the “effect of a mutation on the interaction” value was “increasing interaction strength”.

Variants of: B7
Conditions: with nos3_human NOS3, P29474
Remark: another data set of the same source
With R361H the “effect of a mutation on the interaction” value was “with no effect”.

Variants of: B8
Conditions: with rasf8_human RASSF8, Q8NHQ8
For R361C, the “effect of a mutation on the interaction” value was “with no effect”.

Variants of: B8
Conditions: with rasf8_human RASSF8, Q8NHQ8
Remark: another data set of the same source
With R361H the “effect of a mutation on the interaction” value was “with no effect”.

Variants of: B8
Conditions: with rasf8_human RASSF8, Q8NHQ8
Remark: another data set of the same source
For G386D, the “effect of a mutation on the interaction” value was “with no effect”.

Variants of: B8
Conditions: with rasf8_human RASSF8, Q8NHQ8
Remark: another data set of the same source
With G386D the “effect of a mutation on the interaction” value was “increasing interaction strength”.
